The labels stand for the following.
B1: target 1 insG 3' of 11,insG 3' of 3 (mixed)
RNA 1: CACCCGUGCAAAAAUGCAGGGGUCUAAAACUGAGCGGAUAACCUCUCUAUGG
RNA 2: GGGAAUGGAUCCACAUCUACGAAUUCGUACCAUAGAGAGGUGUAUCCGCUGCACCGAGAUCGGAAGAGCACACGU
B2: target 1 A20C,C21A (mixed)
RNA 1: CACCCGUGCAAAAAUGCAGGGGUCUAAAACUGAGCGGAUAACCUCUCUAUGG
RNA 2: GGGAAUGGAUCCACAUCUACGAAUUCGUACACUAGAGAGGUUAUCCGCUCACCGAGAUCGGAAGAGCACACGU
B3: target 1 insA 3' of 11,insG 3' of 1 (mixed)
RNA 1: CACCCGUGCAAAAAUGCAGGGGUCUAAAACUGAGCGGAUAACCUCUCUAUGG
RNA 2: GGGAAUGGAUCCACAUCUACGAAUUCGUACCAUAGAGAGGUAUAUCCGCUCAGCCGAGAUCGGAAGAGCACACGU
B4: target 1 C6G,G17A (mixed)
RNA 1: CACCCGUGCAAAAAUGCAGGGGUCUAAAACUGAGCGGAUAACCUCUCUAUGG
RNA 2: GGGAAUGGAUCCACAUCUACGAAUUCGUACCAUAAAGAGGUUAUCGGCUCACCGAGAUCGGAAGAGCACACGU
B5: target 1 insA 3' of 19,insA 3' of 8 (mixed)
RNA 1: CACCCGUGCAAAAAUGCAGGGGUCUAAAACUGAGCGGAUAACCUCUCUAUGG
RNA 2: GGGAAUGGAUCCACAUCUACGAAUUCGUACCAUAAGAGAGGUUAUACCGCUCACCGAGAUCGGAAGAGCACACGU
B6: target 1 U3A,G5C (mixed)
RNA 1: CACCCGUGCAAAAAUGCAGGGGUCUAAAACUGAGCGGAUAACCUCUCUAUGG
RNA 2: GGGAAUGGAUCCACAUCUACGAAUUCGUACCAUAGAGAGGUUAUCCCCACACCGAGAUCGGAAGAGCACACGU
B7: target 1 C2U,G15C (mixed)
RNA 1: CACCCGUGCAAAAAUGCAGGGGUCUAAAACUGAGCGGAUAACCUCUCUAUGG
RNA 2: GGGAAUGGAUCCACAUCUACGAAUUCGUACCAUAGACAGGUUAUCCGCUUACCGAGAUCGGAAGAGCACACGU
B8: target 1 insC 3' of 13,insC 3' of 5 (mixed)
RNA 1: CACCCGUGCAAAAAUGCAGGGGUCUAAAACUGAGCGGAUAACCUCUCUAUGG
RNA 2: GGGAAUGGAUCCACAUCUACGAAUUCGUACCAUAGAGAGCGUUAUCCGCCUCACCGAGAUCGGAAGAGCACACGU
B9: target 1 insA 3' of 11,insU 3' of 1 (mixed)
RNA 1: CACCCGUGCAAAAAUGCAGGGGUCUAAAACUGAGCGGAUAACCUCUCUAUGG
RNA 2: GGGAAUGGAUCCACAUCUACGAAUUCGUACCAUAGAGAGGUAUAUCCGCUCAUCCGAGAUCGGAAGAGCACACGU
B10: target 1 insC 3' of 14,insG 3' of 4 (mixed)
RNA 1: CACCCGUGCAAAAAUGCAGGGGUCUAAAACUGAGCGGAUAACCUCUCUAUGG
RNA 2: GGGAAUGGAUCCACAUCUACGAAUUCGUACCAUAGAGACGGUUAUCCGCGUCACCGAGAUCGGAAGAGCACACGU
B11: target 1 U8A,U11A (mixed)
RNA 1: CACCCGUGCAAAAAUGCAGGGGUCUAAAACUGAGCGGAUAACCUCUCUAUGG
RNA 2: GGGAAUGGAUCCACAUCUACGAAUUCGUACCAUAGAGAGGAUAACCGCUCACCGAGAUCGGAAGAGCACACGU
B12: target 1 U11A,G13U (mixed)
RNA 1: CACCCGUGCAAAAAUGCAGGGGUCUAAAACUGAGCGGAUAACCUCUCUAUGG
RNA 2: GGGAAUGGAUCCACAUCUACGAAUUCGUACCAUAGAGAUGAUAUCCGCUCACCGAGAUCGGAAGAGCACACGU
B13: target 1 insA 3' of 22,insC 3' of 22 (mixed)
RNA 1: CACCCGUGCAAAAAUGCAGGGGUCUAAAACUGAGCGGAUAACCUCUCUAUGG
RNA 2: GGGAAUGGAUCCACAUCUACGAAUUCGUACACCAUAGAGAGGUUAUCCGCUCACCGAGAUCGGAAGAGCACACGU
B14: target 1 insC 3' of 8,insG 3' of 6 (mixed)
RNA 1: CACCCGUGCAAAAAUGCAGGGGUCUAAAACUGAGCGGAUAACCUCUCUAUGG
RNA 2: GGGAAUGGAUCCACAUCUACGAAUUCGUACCAUAGAGAGGUUAUCCCGGCUCACCGAGAUCGGAAGAGCACACGU
B15: target 1 A1U,C2A (mixed)
RNA 1: CACCCGUGCAAAAAUGCAGGGGUCUAAAACUGAGCGGAUAACCUCUCUAUGG
RNA 2: GGGAAUGGAUCCACAUCUACGAAUUCGUACCAUAGAGAGGUUAUCCGCUAUCCGAGAUCGGAAGAGCACACGU
B16: target 1 insC 3' of 10,insC 3' of 8 (mixed)
RNA 1: CACCCGUGCAAAAAUGCAGGGGUCUAAAACUGAGCGGAUAACCUCUCUAUGG
RNA 2: GGGAAUGGAUCCACAUCUACGAAUUCGUACCAUAGAGAGGUUCAUCCCGCUCACCGAGAUCGGAAGAGCACACGU
B17: target 1 insG 3' of 18,insA 3' of 12 (mixed)
RNA 1: CACCCGUGCAAAAAUGCAGGGGUCUAAAACUGAGCGGAUAACCUCUCUAUGG
RNA 2: GGGAAUGGAUCCACAUCUACGAAUUCGUACCAUAGGAGAGGAUUAUCCGCUCACCGAGAUCGGAAGAGCACACGU
B18: target 1 G5U,U11C (mixed)
RNA 1: CACCCGUGCAAAAAUGCAGGGGUCUAAAACUGAGCGGAUAACCUCUCUAUGG
RNA 2: GGGAAUGGAUCCACAUCUACGAAUUCGUACCAUAGAGAGGCUAUCCUCUCACCGAGAUCGGAAGAGCACACGU
B19: target 1 G13C,A14U (mixed)
RNA 1: CACCCGUGCAAAAAUGCAGGGGUCUAAAACUGAGCGGAUAACCUCUCUAUGG
RNA 2: GGGAAUGGAUCCACAUCUACGAAUUCGUACCAUAGAGUCGUUAUCCGCUCACCGAGAUCGGAAGAGCACACGU
B20: target 1 insA 3' of 15,insG 3' of 3 (mixed)
RNA 1: CACCCGUGCAAAAAUGCAGGGGUCUAAAACUGAGCGGAUAACCUCUCUAUGG
RNA 2: GGGAAUGGAUCCACAUCUACGAAUUCGUACCAUAGAGAAGGUUAUCCGCUGCACCGAGAUCGGAAGAGCACACGU
B21: target 1 A20C (mixed)
RNA 1: CACCCGUGCAAAAAUGCAGGGGUCUAAAACUGAGCGGAUAACCUCUCUAUGG
RNA 2: GGGAAUGGAUCCACAUCUACGAAUUCGUACCCUAGAGAGGUUAUCCGCUCACCGAGAUCGGAAGAGCACACGU
B22: target 1 complement block 1-9 (mixed)
RNA 1: CACCCGUGCAAAAAUGCAGGGGUCUAAAACUGAGCGGAUAACCUCUCUAUGG
RNA 2: GGGAAUGGAUCCACAUCUACGAAUUCGUACCAUAGAGAGGUUUAGGCGAGUCCGAGAUCGGAAGAGCACACGU
B23: target 1 insA 3' of 11,insC 3' of 1 (mixed)
RNA 1: CACCCGUGCAAAAAUGCAGGGGUCUAAAACUGAGCGGAUAACCUCUCUAUGG
RNA 2: GGGAAUGGAUCCACAUCUACGAAUUCGUACCAUAGAGAGGUAUAUCCGCUCACCCGAGAUCGGAAGAGCACACGU
B24: target 1 G13A,A20U (mixed)
RNA 1: CACCCGUGCAAAAAUGCAGGGGUCUAAAACUGAGCGGAUAACCUCUCUAUGG
RNA 2: GGGAAUGGAUCCACAUCUACGAAUUCGUACCUUAGAGAAGUUAUCCGCUCACCGAGAUCGGAAGAGCACACGU
B25: target 1 G17U,A20C (mixed)
RNA 1: CACCCGUGCAAAAAUGCAGGGGUCUAAAACUGAGCGGAUAACCUCUCUAUGG
RNA 2: GGGAAUGGAUCCACAUCUACGAAUUCGUACCCUAUAGAGGUUAUCCGCUCACCGAGAUCGGAAGAGCACACGU
B26: target 1 insA 3' of 12,insU 3' of 12 (mixed)
RNA 1: CACCCGUGCAAAAAUGCAGGGGUCUAAAACUGAGCGGAUAACCUCUCUAUGG
RNA 2: GGGAAUGGAUCCACAUCUACGAAUUCGUACCAUAGAGAGGAUUUAUCCGCUCACCGAGAUCGGAAGAGCACACGU
B27: target 1 insU 3' of 17,insU 3' of 7 (mixed)
RNA 1: CACCCGUGCAAAAAUGCAGGGGUCUAAAACUGAGCGGAUAACCUCUCUAUGG
RNA 2: GGGAAUGGAUCCACAUCUACGAAUUCGUACCAUAGUAGAGGUUAUCUCGCUCACCGAGAUCGGAAGAGCACACGU

We go through 27 molecules from paper PMC10786891, “Massively parallel profiling of RNA-targeting CRISPR-Cas13d”.

For orientation: Kd means the free concentration of one partner at which half of the binding sites on the other are occupied at equilibrium, for simple one-to-one binding. The low end stands for a tighter complex, the high end for a looser complex.

The target in the data set is T1, EsCas13d, nuclease-dead (Eubacterium siraeum, UniProt B0MS50, R295A;H300A;R849A;H854A).
T1 sequence: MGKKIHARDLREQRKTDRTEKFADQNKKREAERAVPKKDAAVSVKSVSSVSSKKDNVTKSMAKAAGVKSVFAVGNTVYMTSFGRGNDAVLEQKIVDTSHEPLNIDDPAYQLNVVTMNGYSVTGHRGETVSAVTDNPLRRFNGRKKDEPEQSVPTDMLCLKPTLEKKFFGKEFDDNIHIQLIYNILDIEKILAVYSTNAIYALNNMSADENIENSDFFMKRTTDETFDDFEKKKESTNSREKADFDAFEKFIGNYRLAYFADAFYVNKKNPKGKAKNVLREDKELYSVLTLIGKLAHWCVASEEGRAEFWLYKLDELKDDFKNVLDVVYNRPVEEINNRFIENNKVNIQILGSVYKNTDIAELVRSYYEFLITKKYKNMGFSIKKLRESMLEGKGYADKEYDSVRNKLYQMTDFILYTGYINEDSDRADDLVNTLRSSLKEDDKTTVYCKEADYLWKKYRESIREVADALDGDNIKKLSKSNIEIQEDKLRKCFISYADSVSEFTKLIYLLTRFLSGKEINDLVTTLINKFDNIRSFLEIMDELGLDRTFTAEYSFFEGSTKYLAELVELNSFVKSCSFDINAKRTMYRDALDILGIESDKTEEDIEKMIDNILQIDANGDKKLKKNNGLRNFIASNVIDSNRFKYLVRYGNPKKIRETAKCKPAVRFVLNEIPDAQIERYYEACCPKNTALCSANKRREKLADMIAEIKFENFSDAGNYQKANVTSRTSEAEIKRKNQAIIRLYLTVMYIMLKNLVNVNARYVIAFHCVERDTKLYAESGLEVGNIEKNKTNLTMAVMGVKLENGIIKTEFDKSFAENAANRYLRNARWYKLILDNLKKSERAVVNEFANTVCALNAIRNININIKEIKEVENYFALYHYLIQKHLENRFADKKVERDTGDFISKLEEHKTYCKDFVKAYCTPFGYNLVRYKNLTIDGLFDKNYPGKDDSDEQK
Nature of the data set: crRNA (strand 1, pre-loaded); Mg2+; 40 mM Tris-HCl pH 7.5, 150 mM NaCl, 6 mM MgCl2, 1 mM DTT, 0.1% Tween-20, 0.2 mg/ml BSA; 25 C; 10 min per concentration, then washed. The note with it: tags: His6-TwinStrep-SUMO cleaved; N-terminal SNAP kept (SNAP-Surface 488); label: 3' end held by stalled T7 RNA polymerase.
As for B1, the Kd came out at 0.042 ± 0.007 µM.

The molecule B2 showed a dissociation constant (Kd) of 0.00563 ± 0.00034 µM.

Molecule B3 gave a dissociation constant Kd of 0.0208 ± 0.001 µM.

In turn, B4 showed an equilibrium dissociation constant (Kd) of 0.048 ± 0.006 µM.

B5 displayed a Kd of 0.0311 ± 0.0027 µM.

The molecule B6 had an equilibrium dissociation constant (Kd) of 0.0169 ± 0.0009 µM. This Kd is about 1.8-fold lower than that of the molecule before.

For the molecule B7, binding was characterised by a dissociation constant (Kd) of 0.049 ± 0.005 µM. This Kd is about 2.9-fold higher than that of the molecule before.

B8: the Kd stood at 0.0169 ± 0.0012 µM. Against the preceding molecule, the Kd is about 2.9-fold lower.

With B9, the Kd came to 0.019 ± 0.0013 µM.

On to B10, for which the Kd was 0.021 ± 0.0012 µM.

Regarding B11, the dissociation constant (Kd) worked out at 0.0268 ± 0.0019 µM.

Molecule B12 gave a Kd of 0.0342 ± 0.0022 µM.

For B13, binding was characterised by a dissociation constant (Kd) of 0.00892 ± 0.00033 µM. Compared with the last molecule, the Kd is about 3.8-fold lower.

In turn, B14 returned a Kd of 0.0171 ± 0.0013 µM.

For B15, the Kd amounted to 0.0084 ± 0.0007 µM.

As to B16, the Kd stood at 0.063 ± 0.013 µM.

B17 came in with a Kd of 0.073 ± 0.032 µM.

B18 showed a dissociation constant Kd of 0.061 ± 0.008 µM.

B19 displayed an equilibrium dissociation constant (Kd) of 0.0131 ± 0.0011 µM.

B20 returned a Kd of 0.0051 ± 0.0004 µM.

With B21, the equilibrium dissociation constant (Kd) is 0.0342 ± 0.0025 µM.

B22 displayed a dissociation constant (Kd) of 0.0095 ± 0.0007 µM.

As to B23, the affinity, expressed as Kd, was 0.0158 ± 0.0011 µM.

Turning to B24, the Kd is 0.0145 ± 0.0022 µM.

In turn, B25 displayed a Kd of 0.088 ± 0.021 µM.

B26 displayed a Kd of 0.058 ± 0.016 µM.

The molecule B27 came in with a Kd of 0.0254 ± 0.001 µM.
